Publication PMC8326426, “Resveratrol-induced Sirt1 phosphorylation by LKB1 mediates mitochondrial metabolism” (The Journal of Biological Chemistry, 2021)
Numbering of substitutions follows the chain as printed.

T1: His-Sirt1 core domain, aa 234 to 510 (human, UniProt Q96EB6 234-510)
T1 construct: Sirt1, human, deacetylase core domain, aa 234 to 510; His-tagged Sirt1 was made by subcloning human Sirt1 cDNA into pET28a; also called His-tagged Sirt1 core domain; source: E. coli Rosetta (DE3), eluted
T1 sequence (looked up): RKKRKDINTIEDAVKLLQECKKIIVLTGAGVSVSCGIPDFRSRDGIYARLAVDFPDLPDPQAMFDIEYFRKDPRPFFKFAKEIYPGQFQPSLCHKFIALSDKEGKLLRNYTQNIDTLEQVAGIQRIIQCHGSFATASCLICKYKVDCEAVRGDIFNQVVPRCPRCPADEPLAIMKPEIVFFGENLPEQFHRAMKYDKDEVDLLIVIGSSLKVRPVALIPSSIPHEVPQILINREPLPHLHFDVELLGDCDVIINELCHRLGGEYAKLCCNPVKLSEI

T2: MBP-Sirt1 core domain, aa 234 to 510 (human, UniProt Q96EB6 234-510)
T2 construct: Sirt1, human, deacetylase core domain, aa 234 to 510; MBP-tagged Sirt1 was made by subcloning human Sirt1 cDNA into pMal-c2X; also called MBP-tagged core domain of Sirt1; source: E. coli, purified
T2 sequence (looked up): T1 sequence (looked up)

B1: GST-tagged LZ (leucine-zipper) domain of DBC1, aa 243 to 264 (domain or fragment, UniProt Q8N163 243-264, looked up)
chain: LQRRYRSLLVPSDFLSVHLSWL
notes: DBC1 (Deleted in Breast Cancer 1), leucine zipper, aa 243 to 264; also called GST-LZ; DBC1 LZ domain; source: E. coli, purified
B2: C-terminal truncation of Sirt1, WT (eluted competitor), aa 511 to 747 (domain or fragment, human, UniProt Q96EB6 511-747, looked up)
chain: TEKPPRTQKELAYLSELPPTPLHVSEDSSSPERTSPPDSSVIVTLLDQAAKSNDDLDVSESKGCMEEKPQEVQTSRNVESIAEQMENPDLKNVGSSTGEKNERTSVAGTVRKCWPNRVAKEQISRRLDGNQYLFLPPNRYIFHGAEVYSDSEDDVLSSSSCGSNSDSGTCQSPSLEEPMEDESEIEEFYNGLEDEPDVPERAGGAGFGTDGDDQEAINEAISVKQEVTDMNYPSNKS
notes: Sirt1, human, C terminus, aa 511 to 747; the methods name GST- and His-tagged Sirt1 truncations from E. coli; also called the C terminus of Sirt1; WT C terminus; source: eluted
B3: GST-Sirt1 WT (C terminus), aa 511 to 747 (domain or fragment, human, UniProt Q96EB6 511-747, looked up)
chain: B2 chain
notes: Sirt1, human, C terminus, aa 511 to 747; GST-tagged Sirt1 was made by subcloning human Sirt1 cDNA into pGEX-6p-1; also called GST-Sirt1-C; GST-tagged C terminus of Sirt1; source: E. coli Rosetta (DE3), purified (glutathione-Sepharose 4B, eluted with reduced glutathione)
B4: GST-Sirt1 3D mutant (C terminus), aa 511 to 747 (domain or fragment, human, UniProt Q96EB6 511-747, looked up)
chain: B2 chain with S105D, S159D, S222D
notes: Sirt1, human, C terminus, aa 511 to 747, Ser615, Ser669 and Ser732 replaced by Asp; source: E. coli Rosetta (DE3), purified (glutathione-Sepharose 4B, eluted with reduced glutathione)
B5: GST-Sirt1 3A mutant (C terminus), aa 511 to 747 (domain or fragment, human, UniProt Q96EB6 511-747, looked up)
chain: B2 chain with S105A, S159A, S222A
notes: Sirt1, human, C terminus, aa 511 to 747, Ser615, Ser669 and Ser732 replaced by Ala; source: E. coli Rosetta (DE3), purified (glutathione-Sepharose 4B, eluted with reduced glutathione)
B6: C-terminal truncation of Sirt1, 3D mutant (eluted competitor), aa 511 to 747 (domain or fragment, human, UniProt Q96EB6 511-747, looked up)
chain: B2 chain with S105D, S159D, S222D
notes: Sirt1, human, C terminus, aa 511 to 747, Ser615, Ser669 and Ser732 replaced by Asp; also called 3D C terminus; source: eluted

How the values were obtained:
[1] = target: T1, His-Sirt1 core domain, aa 234 to 510; experiment: pull-down; competitive binding: 2 ug GST-LZ of DBC1 from E. coli, 2 ug eluted His-Sirt1 core domain, with or without 2 ug eluted C-terminal truncation of Sirt1 (WT or mutants), 4 h; bound fraction immunoblotted; settings: both partners purified
[2] = target: T2, MBP-Sirt1 core domain, aa 234 to 510; experiment: pull-down; MBP pull-down: MBP-Sirt1 core domain purified from E. coli incubated with eluted GST-Sirt1 C terminus (WT, 3A or 3D); bound fraction immunoblotted; settings: both partners purified

Binder	binding result [1]	binding result [2]
B1	binds	
B2	binds	
B3		binds
B4		binds
B5		binds
B6	binds	
